Data as given in article PMC11865472 (2025).
Each block holds one binder with its values, some of them ahead of it.

B3: TGF-β2 homodimer (growth factor domain), unlabelled (ligand)
chain: ALDAAYCFRNVQDNCCLRPLYIDFKRDLGWKWIHEPKGYNANFCAGACPYLWSSDTQHSRVLSLYNTINPEASASPCCVSQDLEPLTILYYIGKTPKIEQLSNMIVKSCKCS

What was measured:
[1] = target: T1, TGF-β receptor type II (TGFBR2), extracellular domain (UniProt P37173 23-166); experiment: SPR; 1 µM ratBGO-Y248A
[2] = target: T1, TGF-β receptor type II (TGFBR2), …; experiment: SPR; 1 µM ratBGO
[3] = target: T1, TGF-β receptor type II (TGFBR2), …; experiment: SPR
[4] = target: T1, TGF-β receptor type II (TGFBR2), …; experiment: SPR; 1 µM ratBGO-zfBL
[5] = target: T1, TGF-β receptor type II (TGFBR2), …; experiment: SPR; 1 µM zfBGO
[6] = target: T2, biotinylated TGF-β2 homodimer (human, biotin (EZ-Link Amine-PEG3-Biotin coupled with EDC and sulfo-NHS)); experiment: SPR
T2 chain: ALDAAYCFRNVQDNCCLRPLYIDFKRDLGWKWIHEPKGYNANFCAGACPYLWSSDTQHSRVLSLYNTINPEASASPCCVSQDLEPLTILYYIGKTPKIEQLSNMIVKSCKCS

[7] = target: T3, inhibin A (InhA), mature heterodimer, unlabelled (UniProt P05111 233-366; P08476 311-426); experiment: SPR
T3 chain 1: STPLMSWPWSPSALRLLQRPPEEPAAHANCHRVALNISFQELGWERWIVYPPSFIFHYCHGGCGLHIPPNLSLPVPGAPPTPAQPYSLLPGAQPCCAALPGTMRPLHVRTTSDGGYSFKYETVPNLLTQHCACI
T3 chain 2: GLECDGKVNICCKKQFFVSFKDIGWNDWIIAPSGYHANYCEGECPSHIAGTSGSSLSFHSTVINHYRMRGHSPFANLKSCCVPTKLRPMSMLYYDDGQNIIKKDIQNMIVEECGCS

[8] = target: B3; experiment: SPR

Kd [1]: > 10000 nM
B1: TGF-β2 on the chip with ratBGO-Y248A bound (1 µM ratBGO-Y248A in the buffer) (complex)
chain 1: ALDAAYCFRNVQDNCCLRPLYIDFKRDLGWKWIHEPKGYNANFCAGACPYLWSSDTQHSRVLSLYNTINPEASASPCCVSQDLEPLTILYYIGKTPKIEQLSNMIVKSCKCS
chain 2: GSPCELSPINASHPVQALMESFTVLSGCASRGTTGLPREVHVLNLRSTDQGPGQRQREVTLHLNPIASVHTHHKPIVFLLNSPQPLVWHLKTERLAAGVPRLFLVSEGSVVQFPSGNFSLTAETEERNFPQENEHLLRWAQKEYGAVTSFTELKIARNIYIKVGEDQVFPPTCNIGKNFLSLNYLAEYLQPKAAEGCVLPSQPHEKEVHIIELITPSSNPASAFQVDIIVDIRPAQEDPEVVKNLVLILKCKKSVNWVIKSFDVKGNLKVIAPNSIGFGKESERSMTMTKLVRDDIPSTQENLMKWALDNGYRPVTSYTMAPVANRFHLRLENHHHHHH

Kd [2]: 1780 nM
B2: TGF-β2 on the chip with ratBGO bound (1 µM ratBGO in the buffer) (complex)
chain 1: ALDAAYCFRNVQDNCCLRPLYIDFKRDLGWKWIHEPKGYNANFCAGACPYLWSSDTQHSRVLSLYNTINPEASASPCCVSQDLEPLTILYYIGKTPKIEQLSNMIVKSCKCS
chain 2: GSPCELSPINASHPVQALMESFTVLSGCASRGTTGLPREVHVLNLRSTDQGPGQRQREVTLHLNPIASVHTHHKPIVFLLNSPQPLVWHLKTERLAAGVPRLFLVSEGSVVQFPSGNFSLTAETEERNFPQENEHLLRWAQKEYGAVTSFTELKIARNIYIKVGEDQVFPPTCNIGKNFLSLNYLAEYLQPKAAEGCVLPSQPHEKEVHIIELITPSSNPYSAFQVDIIVDIRPAQEDPEVVKNLVLILKCKKSVNWVIKSFDVKGNLKVIAPNSIGFGKESERSMTMTKLVRDDIPSTQENLMKWALDNGYRPVTSYTMAPVANRFHLRLENHHHHHH

Binder: B3
Kd [3]: > 10000 nM

Kd [4]: > 10000 nM
B4: TGF-β2 on the chip with ratBGO-zfBL bound (1 µM ratBGO-zfBL in the buffer) (complex)
chain 1: ALDAAYCFRNVQDNCCLRPLYIDFKRDLGWKWIHEPKGYNANFCAGACPYLWSSDTQHSRVLSLYNTINPEASASPCCVSQDLEPLTILYYIGKTPKIEQLSNMIVKSCKCS
chain 2: GSPCELSPINASHPVQALMESFTVLSGCASRGTTGLPREVHVLNLRSTDQGPGQRQREVTLHLNPIASVHTHHKPIVFLLNSPQPLVWHLKTERLAAGVPRLFLVSEGSVVQFPSGNFSLTAETEERNFPQENEHLLRWAQKEYGAVTSFTELKIARNIYIKVGEDQVFPPTCNIGKNFLSLNYLAEYLQPKAAEGCVLPSQPHEKEVHIIELITPNSSSAFQVDIIVDIRPAQEDPEVVKNLVLILKCKKSVNWVIKSFDVKGNLKVIAPNSIGFGKESERSMTMTKLVRDDIPSTQENLMKWALDNGYRPVTSYTMAPVANRFHLRLENHHHHHH

Kd [5]: > 10000 nM
B5: TGF-β2 on the chip with zfBGO bound (1 µM zfBGO in the buffer) (complex)
chain 1: ALDAAYCFRNVQDNCCLRPLYIDFKRDLGWKWIHEPKGYNANFCAGACPYLWSSDTQHSRVLSLYNTINPEASASPCCVSQDLEPLTILYYIGKTPKIEQLSNMIVKSCKCS
chain 2: GSPCELLPVGVGHPVQAMLKSFTALSGCASRGTTSHPQEVHIINLRKGSAQGAREKTAEVALHLRPIQSLHVHQKPLVFILNSPQPILWKVRTEKLAPGVKRIFHVVEGSEVHFEVGNFSKSGEVKVETLPHGNEHLLNWAHHRYTAVTSFSELRMAHDIYIKVGEDPVFSETCKIDNKFLSLNYLASYIEPQPSTGCVLSGPDHEQEVHIIELQAPNSSSAFQVDVIVDLRPLDGDIPLHRDVVLLLKGEKSVNWVIKAHKVMGKLEIMTSDTVSLSEDTERLMQVSKTVKQKLPAGSQALIQWAEENGFNPVTSYTNTPVANHFNLRLREHHHHHH

Kd [6]: 159 nM | Kd [7]: 1070 nM | Kd [8]: 127 nM
B6: rat betaglycan ZP-C domain (BG_(ZP-C)), mammalian-expressed (domain or fragment)
chain: GNATFNMELYNTDLFLVPSPGVFSVAENEHVYVEVSVTKADQDLGFAIQTCFLSPYSNPDRMSDYTIIENICPKDDSVKFYSSKRVHFPIPHAEVDKKRFSFLFKSVFNTSLLFLHCELTLCSRKKGSLKLPRCVTPDDACTSLDATMIWTMMQNKKTFTKPLAVVLQ

Kd [6]: 282 nM
B7: BGZP-C S155A (protein)
chain: GNATFNMELYNTDLFLVPSPGVFSVAENEHVYVEVSVTKADQDLGFAIQTCFLSPYSNPDRMSDYTIIENICPKDDSVKFYSSKRVHFPIPHAEVDKKRFSFLFKSVFNTSLLFLHCELTLCSRKKGSLKLPRCVTPDDACTALDATMIWTMMQNKKTFTKPLAVVLQ

Kd [6]: 1350 nM
B8: BGZP-C E130A (protein)
chain: GNATFNMELYNTDLFLVPSPGVFSVAENEHVYVEVSVTKADQDLGFAIQTCFLSPYSNPDRMSDYTIIENICPKDDSVKFYSSKRVHFPIPHAEVDKKRFSFLFKSVFNTSLLFLHCALTLCSRKKGSLKLPRCVTPDDACTSLDATMIWTMMQNKKTFTKPLAVVLQ
